Data published in patent US8501695B2, “Tissue kallikrein for the treatment of diseases associated with amyloid protein” (DiaMedica, Inc., priority 2007, dated 2013).
“And” between values parts separate entries of the source, which are not always exact repeats. Equal entries are not always repeated.

Experiment: Pharmacokinetic study of intranasal tissue kallikrein (125I-KLK1 tissue concentrations by gamma counting)
Assay type: in vivo
Settings: rat, 30 min. end point, individual animal, listed as kallikrien
Description: The purpose of this study was to quantify the amount of tissue kallikrein (KLK1) reaching the central nervous system and peripheral tissues after intranasal administration to anesthetized rats. At 30 min after KLK1 administration, animals were transcardially perfused with ice-cold saline followed by paraformaldehyde fixative and tissues were dissected. The amount of radiolabeled KLK1 in each tissue sample was quantified by gamma counting and tissue concentrations were calculated using tissue weight and gamma counting of standards of the dosing solutions
Adult male Sprague Dawley rats (n=10, mean 335.4 g±4.57 g SE) were used for this study. Animals were group housed in the Regions Hospital Animal Care Facility with free access to food and water. Animals were kept on a 12 h light cycle. All experimental procedures were approved by the Animal Care and Use Committee at Regions Hospital under IACUC protocol number 08-022.
Tissue kallikrein was sent to Perkin-Elmer for ^125I-labelling (Quote NEX-084, lot C1541583). Non-labeled KLK1 from Sigma (cat#K3627-1KU, lot 018K1441) was also used. Non-labeled KLK1 was dissolved in 1×PBS (10×PBS, Sigma, cat #P5493, lot 027K8405 diluted in sterile water). The average dose was 48.1 μL, 75 μCi, and 2.6 mg.
• a. Prior to anesthesia, each rat was weighed. • b. An anesthesia cocktail was prepared and full, half, and quarter anesthesia doses were calculated according to the animal's weight with a full dose containing 30 mg/kg ketamine, 6 mg/kg xylazine, and 1 mg/kg acepromazine. • c. A 1-cc syringe fitted with a 25 G or 27 G, ½ inch needle was assembled and a full dose was drawn into the syringe for injection. • d. Rats were restrained in a towel as follows. Rats were placed ventral side down in the middle of a hand towel. The towel was then wrapped around the head and shoulders to restrain. Wrapped animals remained ventral side down while the left hind leg was located. • e. The left hind leg was drawn to the side and the needle was inserted just beneath the skin (subcutaneous) above the thigh. After ensuring that the needle was placed subcutaneously (and not intramuscularly), full doses were injected. Rats were placed in holding cages and the injection time noted. Animals should be under within 5 min. • f. Anesthesia was monitored throughout the procedures by assessing reflexes using pinching of the hind paw or tail. If a reflex was present, a half or quarter dose booster was administered as necessary. • g. During drug administration, animals received a half dose booster roughly 20-25 min after initial dose. Intranasal Delivery of ^125I-KLK1 • a. Anesthetized rats were placed on their backs on a heating pad in a metal surgical tray. The heating pad was connected to a thermostat and was automatically regulated to maintain a 37° C. temperature based on continuous measurement from a rectal probe. • b. A 2″×2″ gauze pad was rolled tightly into a pillow, taped together, and under the neck to maintain a correct neck position horizontal with the counter. • c. A lead impregnated shield was placed between the surgical tray and the experimenter for protection against radiation. The dose solution, pipette, pipette tips, and waste receptacle were arranged behind the shield for easy access. • d. A 6 μL drop was loaded into the pipette behind the shield. • e. A cotton swab covered in parafilm was used to occlude one naris completely (the flat part of the swab was pushed gently against the naris to prevent airflow), while the 6 μL drop was expelled slowly from the pipette (held at a 45° angle from the rat's midline), forming a drop on the pipette tip. The drop was lowered onto the open naris to be inhaled. • f. After two minutes, the alternate naris was occluded and a 6 μL drop was administered in the same fashion. • g. A drop was administered as described above every two minutes to alternating nares until a total of 8 drops was delivered (4 to each naris) over 14 min. • h. […]

B1: tissue kallikrein: serine protease that cleaves kininogen into kallidin; polypeptide SEQ ID NO:1 (Sus scrofa kallikrein 1), KLK1 from Sigma (protein, listed as Sus scrofa)
chain: MWSLVMRLALSLAGTGAAPPIQSRIIGGRECEKDSHPWQVAIYHYSSFQCGGVLVDPKWVLTAAHCKNDNYQVWLGRHNLFENEVTAQFFGVTADFPHPGFNLSLLKNHTKADGKDYSHDLMLLRLQSPAKITDAVKVLELPTQEPELGSTCQASGWGSIEPGPDDFEFPDEIQCVELTLLQNTFCADAHPDKVTESMLCAGYLPGGKDTCMGDSGGPLICNGMWQGITSWGHTPCGSANKPSIYTKLIFYLDWINDTITENP
modifications: 125I label in one form
For B1, the “concentration in Lung (R, top lobe)” value was 0.0486 µM and 0.0487 µM and 0.0468 µM and 0.0182 µM and 0.0372 µM and 0.0301 µM and 0.0279 µM and 0.0244 µM and 0.0643 µM and 0.0255 µM, the “concentration in Medulla” value was 0.0123 µM and 0.0099 µM and 0.01399 µM and 0.0174 µM and 0.0111 µM and 0.021 µM and 0.0211 µM and 0.0106 µM and 0.0205 µM and 0.0108 µM and the “concentration in Midbrain” value was 12.3 nM and 9.5 nM and 13.1 nM and 15.3 nM and 10.0 nM and 15.9 nM and 9.9 nM (2×) and 16.4 nM. For the same molecule, the “concentration in Muscle (R, deltoid)” value was 24.2 nM (2×) and 17.7 nM and 17.5 nM and 15.8 nM and 12.4 nM and 16.5 nM and 23.1 nM and 29.3 nM and 33.2 nM, the “concentration in Occipital Cortex” value was 9.8 nM (2×) and 9.6 nM and 12.7 nM and 12.3 nM and 14.1 nM and 14.0 nM and 13.6 nM and 19.2 nM and the “concentration in Olfactory Bulbs” value was 0.0444 µM and 0.0399 µM and 0.1281 µM and 0.1688 µM and 0.0662 µM and 0.2209 µM and 0.1235 µM and 0.0745 µM and 0.1571 µM and 0.0482 µM. The “concentration in Olfactory Epithelium” value was 17,707.4 nM and 21,919.4 nM and 21,270.9 nM and 41,836.8 nM and 17,083.5 nM and 31,983.9 nM and 38,661.3 nM and 13,736.3 nM and 17,247.4 nM and 26,179.4 nM, the “concentration in Optic Chiasm” value was 0.0207 µM and 0.0144 µM and 0.0413 µM and 0.0347 µM and 0.0514 µM and 0.0084 µM and 0.0382 µM and 0.027 µM and 0.0287 µM and the “concentration in Parietal Cortex” value was 0.0075 µM and 0.0085 µM and 0.0105 µM and 0.009 µM and 0.0101 µM and 0.0185 µM and 0.0143 µM and 0.0128 µM and 0.0176 µM and 0.0123 µM. The “concentration in Pituitary” value was 0.0869 µM and 0.044 µM and 0.0589 µM and 0.0518 µM and 0.0793 µM and 0.0597 µM and 0.0443 µM and 0.0679 µM and 0.0481 µM, the “concentration in Pons” value was 0.0124 µM and 0.01 µM and 0.0139 µM and 0.0162 µM and 0.0101 µM and 0.022 µM and 0.0186 µM and 0.0106 µM and 0.0204 µM and 0.0102 µM and the “concentration in Posterior Trigeminal Nerve” value was 0.0823 µM and 0.0378 µM and 0.0605 µM and 0.0487 µM and 0.0477 µM and 0.0502 µM and 0.0359 µM and 0.0705 µM and 0.0326 µM. The “concentration in Renal artery (L)” value was 0.0562 µM and 0.0673 µM and 0.1031 µM and 0.0528 µM and 0.0558 µM and 0.0261 µM and 0.043 µM and 0.0789 µM and 0.0669 µM and 0.0312 µM, the “concentration in Respiratory Epithelium” value was 78,502.7 nM and 75,759.2 nM and 26,815.1 nM and 82,292.8 nM and 126,759.8 nM and 34,402.4 nM and 71,775.8 nM and 107,890.6 nM and 91,206.0 nM and 64,295.5 nM and the “concentration in Septal Nucleus” value was 0.0095 µM and 0.0082 µM and 0.0133 µM and 0.0136 µM and 0.0102 µM and 0.0194 µM and 0.0129 µM and 0.0098 µM and 0.012 µM. For the same molecule, the “concentration in Spinal Dura” value was 0.0231 µM and 0.0263 µM and 0.0361 µM and 0.0214 µM and 0.0169 µM and 0.0266 µM and 0.0262 µM and 0.0397 µM and 0.0201 µM and 0.0295 µM, the “concentration in Spleen (tip)” value was 0.029 µM and 0.0815 µM and 0.0351 µM and 0.0875 µM and 0.0911 µM and 0.0829 µM and 0.0754 µM and 0.0898 µM and 0.0738 µM and 0.08 µM and the “concentration in Striatum” value was 0.0082 µM and 0.0055 µM and 0.0085 µM and 0.0067 µM and 0.00723 µM and 0.0149 µM and 0.0104 µM and 0.0095 µM and 0.0151 µM and 0.0119 µM. For the same molecule, the “concentration in Superficial Nodes (2)” value was 0.0588 µM and 0.0399 µM and 0.0422 µM and 0.0601 µM and 0.0668 µM and 0.069 µM and 0.0942 µM and 0.0689 µM and 0.068 µM, the “concentration in Temporal Cortex” value was 0.0099 µM and 0.0078 µM and 0.01165 µM and 0.0104 µM and 0.0142 µM and 0.0166 µM and 0.0156 µM and 0.0125 µM and 0.0137 µM and 0.0115 µM and the “concentration in Thalamus” value was 7.9 nM and 6.7 nM and 12.2 nM (2×) and 10.5 nM and 8.1 nM and 15.4 nM and 14.0 nM and 7.2 nM and 9.1 nM. The “concentration in Thoracic Spinal Cord” value was 0.0055 µM and 0.0051 µM and 0.0067 µM and 0.0045 µM and 0.0042 µM and 0.0065 µM and 0.0047 µM and 0.0057 µM and 0.0041 µM and 0.005 µM, the “concentration in Thyroid” value was 1,730.9 nM and 2,077.1 nM and 2,106.5 nM and 1,369.2 nM and 2,644.1 nM and 2,380.4 nM and 1,219.8 nM and 2,016.7 nM and 2,148.4 nM and 2,013.3 nM and the “concentration in Trachea” value was 0.0585 µM and 0.1168 µM and 0.0645 µM and 0.0936 µM and 0.0448 µM and 0.0593 µM and 0.0651 µM and 0.1106 µM and 0.0864 µM. The “concentration in Upper Cervical Spinal Cord” value was 0.016 µM and 0.017 µM and 0.01818 µM and 0.0316 µM and 0.0188 µM and 0.0351 µM and 0.0372 µM and 0.0204 µM and 0.027 µM and 0.0128 µM, the “concentration in Urine” value was 0.2492 µM and 0.0795 µM and 0.1909 µM and 0.0578 µM and 0.0511 µM and 0.0656 µM and 0.2874 µM and 0.0958 µM and 0.1392 µM and 0.0906 µM and the “concentration in Ventral Dura” value was 0.1137 µM and 0.0716 µM and 0.0298 µM and 0.1383 µM and 0.1656 µM and 0.2594 µM and 0.1926 µM and 0.1508 µM and 0.2118 µM and 0.0961 µM.
